Measured values: article PMC4776146, “Distinct phosphorylation sites on the ghrelin receptor, GHSR1a, establish a code that determines the functions of ß-arrestins” (Scientific Reports, 2016)

B1: Renilla luciferase-tagged ß-arrestin 1 (natural protein, UniProt P49407 1-418, looked up)
chain: MGDKGTRVFKKASPNGKLTVYLGKRDFVDHIDLVDPVDGVVLVDPEYLKERRVYVTLTCAFRYGREDLDVLGLTFRKDLFVANVQSFPPAPEDKKPLTRLQERLIKKLGEHAYPFTFEIPPNLPCSVTLQPGPEDTGKACGVDYEVKAFCAENLEEKIHKRNSVRLVIRKVQYAPERPGPQPTAETTRQFLMSDKPLHLEASLDKEIYYHGEPISVNVHVTNNTNKTVKKIKISVRQYADICLFNTAQYKCPVAMEEADDTVAPSSTFCKVYTLTPFLANNREKRGLALDGKLKHEDTNLASSTLLREGANREILGIIVSYKVKVKLVVSRGGLLGDLASSDVAVELPFTLMHPKPKEEPPHREVPENETPVDTNLIELDTNDDDIVFEDFARQRLKGMKDDKEEEEDGTGSPQLNNR
notes: plasmid provided by Prof; Mark Scott (Institut Cochin, Paris); also called Rluc-ß-arrestin 1; source: HEK 293, transiently co-transfected (Lipofectamine 2000), in living cells

Experiments:
Assay in all cases: FRET or BRET; BRET in living HEK 293 cells; eYFP-tagged receptor and Rluc-ß-arrestin co-transfected at a ratio of 4:1; Hanks' balanced salt solution; coelenterazine 2.5 uM for 10 min at 37 °C, then ghrelin for 5 min; concentration response curves for ghrelin; emissions at 535 and 475 nm
[1] = target: GHSR1a-TM (triple mutant of Ser362, Ser363 and Thr366 to Ala) fused at its C terminus to eYFP (UniProt Q92847)
Chain of GHSR1a-TM (triple mutant of Ser362, Ser363 and Thr366 to Ala) fused at its C terminus to eYFP (Q92847 other isoform, or with tags, fused parts or gaps, change not shown): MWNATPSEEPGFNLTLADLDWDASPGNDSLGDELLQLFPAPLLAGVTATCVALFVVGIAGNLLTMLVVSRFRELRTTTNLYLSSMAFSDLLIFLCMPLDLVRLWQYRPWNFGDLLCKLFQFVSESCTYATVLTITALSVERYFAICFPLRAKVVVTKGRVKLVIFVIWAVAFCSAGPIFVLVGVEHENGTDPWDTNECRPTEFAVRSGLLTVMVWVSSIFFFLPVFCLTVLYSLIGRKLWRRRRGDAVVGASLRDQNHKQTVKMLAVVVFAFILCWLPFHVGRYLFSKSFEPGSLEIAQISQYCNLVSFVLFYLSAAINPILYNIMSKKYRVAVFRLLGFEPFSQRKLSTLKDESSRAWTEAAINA

[2] = target: GHSR1a-Total (Ser349, Thr350, Ser362, Ser363 and Thr366 substituted by Ala) fused at its C terminus to eYFP (UniProt Q92847)
Chain of GHSR1a-Total (Ser349, Thr350, Ser362, Ser363 and Thr366 substituted by Ala) fused at its C terminus to eYFP (Q92847 other isoform, or with tags, fused parts or gaps): as the sequence (Q92847 other isoform, or with tags, fused parts or gaps, change not shown) above, with S349A, T350A counted along it

[3] = target: T1, GHSR1a-WT fused at its C terminus to enhanced yellow fluorescent protein (eYFP) (UniProt Q92847 1-366); conditions: partners not purified
T1 construct: amplified by PCR with primers that removed the stop codon, subcloned upstream of full-length eYFP in pcDNA3.1; Phosphorylated in cells after ghrelin at Ser349, Thr350, Ser362, Ser363 and Thr366 (mass spectrometry on the EGFP-tagged receptor); also called YFP-GHSR1a-WT; YFP tagged-GHSR1a-WT; source: HEK 293, transiently co-transfected (Lipofectamine 2000), in living cells; not shown: eYFP, …
T1 sequence (Q92847 whole entry, the tested form may be a part): as the sequence (Q92847 other isoform, or with tags, fused parts or gaps, change not shown) above, with A362S, A363S, A366T counted along it

[4] = target: T2, GHSR1a-DM (double mutant Thr350Ala, Ser349Ala) fused at its C terminus to eYFP (UniProt Q92847 1-366, Thr350Ala | Ser349Ala); conditions: partners not purified
T2 construct: also called YFP-GHSR1a-DM; source: HEK 293, transiently co-transfected (Lipofectamine 2000), in living cells; not shown: eYFP, C-terminal, kept
T2 sequence (Q92847 whole entry S349A/T350A, the tested form may be a part): as the sequence (Q92847 other isoform, or with tags, fused parts or gaps, change not shown) above, with S349A, T350A, A362S, A363S, A366T counted along it

Row | Molecule | efficacy of recruitment, percent of GHSR1a-WT response (BRET) (% of GHSR1a-WT response) [1] | pEC50 of ghrelin for ß-arrestin 2 recruitment (BRET) [1] | efficacy of recruitment, percent of GHSR1a-WT response (BRET) (% of GHSR1a-WT response) [2] | pEC50 of ghrelin for ß-arrestin 2 recruitment (BRET) [2] | pEC50 of ghrelin for ß-arrestin 1 recruitment (BRET) [1] | pEC50 of ghrelin for ß-arrestin 1 recruitment (BRET) [2] | pEC50 of ghrelin for ß-arrestin 1 recruitment (BRET) [3] | pEC50 of ghrelin for ß-arrestin 1 recruitment (BRET) [4]
1 | ß-arrestin 2 tagged with Rluc at its C-terminus (from UniProt P32121 1-409) (natural protein) | 24.6 | 6.97 | 18 | 6.04 | – | – | – | –
2 | B1 | 36.8 | – | 31.8 | – | 7.13 | 6.01 | 7.54 | 7.1
